Series [1] deals with T1, Redβ (single-strand annealing protein) (UniProt P03698 1-261).
T1 sequence: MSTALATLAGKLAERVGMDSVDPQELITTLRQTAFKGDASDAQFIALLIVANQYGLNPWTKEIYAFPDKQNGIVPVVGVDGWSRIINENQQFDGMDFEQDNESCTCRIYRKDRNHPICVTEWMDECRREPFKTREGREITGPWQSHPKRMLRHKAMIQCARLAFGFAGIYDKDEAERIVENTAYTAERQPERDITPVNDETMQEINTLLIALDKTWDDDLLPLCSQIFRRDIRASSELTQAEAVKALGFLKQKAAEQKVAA
In words: EMSA (agarose) and AFM; strands coated first at 37 °C, then mixed; ssDNA/Redβ 1:1 to 1:4; weak interaction, residual free ssDNA at 1:1; B1 buffer: 50 mM Tris-HCl pH 8.0, 150 mM NaCl, 1 mM MgCl2, 25 °C (sticky-end assemblies); 44mer coating and annealing at 37 °C; SEC in 100 mM Tris-HCl pH 8.0, 150 mM NaCl, 1 mM MgCl2. The conditions noted are these: protein: recombinant; tags: Strep-tag II; blunt-ended immobile four-way junction, 22 bp arms.

Series [2] addresses T1, Redβ (single-strand annealing protein). In words: SEC, gel and AFM; excess Redβ (ssDNA/Redβ 1:25 stated), 25 °C, 1 mM MgCl2; B1 buffer: 50 mM Tris-HCl pH 8.0, 150 mM NaCl, 1 mM MgCl2, 25 °C (sticky-end assemblies); 44mer coating and annealing at 37 °C; SEC in 100 mM Tris-HCl pH 8.0, 150 mM NaCl, 1 mM MgCl2. The note with it: protein: recombinant, tags: Strep-tag II, four-way junction.

For series [3] the target is unchanged. Nature of the series: EMSA (agarose) and AFM; strands coated first, then mixed; ssDNA/Redβ 1:1 and 1:2; completely coated at 1:1, slightly increased affinity vs 44mer; B1 buffer: 50 mM Tris-HCl pH 8.0, 150 mM NaCl, 1 mM MgCl2, 25 °C (sticky-end assemblies); 44mer coating and annealing at 37 °C; SEC in 100 mM Tris-HCl pH 8.0, 150 mM NaCl, 1 mM MgCl2. The conditions noted are these: protein: recombinant; tags: Strep-tag II; blunt-ended immobile four-way junction, 33 bp arms.

The target is the same in series [4]. In words: EMSA (agarose), SEC and AFM; strands coated first, then mixed; ssDNA/Redβ 1:1 (incomplete) and 1:2 (saturated); B1 buffer: 50 mM Tris-HCl pH 8.0, 150 mM NaCl, 1 mM MgCl2, 25 °C (sticky-end assemblies); 44mer coating and annealing at 37 °C; SEC in 100 mM Tris-HCl pH 8.0, 150 mM NaCl, 1 mM MgCl2. The conditions noted are these: protein: recombinant; tags: Strep-tag II; blunt-ended immobile four-way junction, 44 bp arms. (In general: A gel shift assay detects complexes by their altered migration in electrophoresis.)

B1: 44mer Holliday junction (structured_DNA)
DNA 1: CGATGCGAAATCTGTACGCGCACCACGTGAAGGTGCTAGTCCCC
DNA 2: GAATGTGTTGATGGTTAAGTTCTGCGCGTACAGATTTCGCATCG
DNA 3: GTGTCTATCATTAGCGGCTCAAGAACTTAACCATCAACACATTC
DNA 4: GGGGACTAGCACCTTCACGTGGTTGAGCCGCTAATGATAGACAC
With B1, in series [1], the binding result was “binds”.

B2: S1S4 sticky-end Holliday junction (structured_DNA)
DNA 1: GATTCCTTCCGGGCGAATTTACCCCAGTGAACGCTGGTCCCCGCGGTCATGCTGAAGGCGATAGTA
DNA 2: GCGGGGACCAGCGTTCACTGGGTTATTGGGTATGACGAGCTTAGATTTGGTATATGGTCTCGACTA
DNA 3: TAGTCGAGACCATATACCAAATCTAAGCTCGTCATACCCAATAAGATGTACGTTGGCGGACAGTTACATATTGTGCGCTGCCGGTGGC
DNA 4: GCCACCGGCAGCGCACAATATGTAACTGTCCGCCAACGTACATCGTAAATTCGCCCGGAAGGAATCCCGTAACGAGGCCACATTTTTG
Take B2: the binding result in series [2] (two 3' overhangs 22 nt (strands 1 and 4)) is on record as “binds”.

B3: S5S8 sticky-end Holliday junction (structured_DNA)
DNA 1: ATGTTGATCGGGAGAGGTCGAACCCTCTTTGATATTTGTGACTTTCGGGGCAACTATTTCCTCGGCGACCACGTTCGGTGACGGACCT
DNA 2: AGGTCCGTCACCGAACGTGGTCGCCGAGGAAATAGTTGCCCCGACAGGAAGCTAACTAACATGAGACAAAAATGTGGCCTCGTTACGG
DNA 3: TCTCATGTTAGTTAGCTTCCTGACGCCTGGCCGTATCTTCGGCTTACTATCGCCTTCAGCATGACC
DNA 4: AGCCGAAGATACGGCCAGGCGTAAGTCACAAATATCAAAGAGGGTTCGACCTCTCCCGATCAACAT
In the case of B3, in series [2] (two 3' overhangs 22 nt (strands 2 and 3)), the binding result is “binds”.

B4: 66mer Holliday junction (structured_DNA)
DNA 1: ATGCCGCATACAACAAGTGGGGGGATGAATAGGATGTACTGCCTTTTTTATCGACTGTCCAATATG
DNA 2: CATATTGGACAGTCGATAAAAAAGGCAGTACATACTTGGTCCACTCTGGTACAAGATGAGGTGGAT
DNA 3: ATCCACCTCATCTTGTACCAGAGTGGACCAAGTAGTGCGCGATTGACGTTCGAGGCGGACTCTCCT
DNA 4: AGGAGAGTCCGCCTCGAACGTCAATCGCGCACTCCTATTCATCCCCCCACTTGTTGTATGCGGCAT
B4: the binding result in series [3] is recorded as “binds”.

B5: 88mer Holliday junction (structured_DNA)
DNA 1: CAGTTCCCTAAGACATCGACGTAGGACCTTGATCAACGCAGCTATGACTTCAGAGATTCTCTTATCTGGAAGCGTCCACGAACCGGCC
DNA 2: GGCCGGTTCGTGGACGCTTCCAGATAAGAGAATCTCTGAAGTCATTTGTACACTTTTCTATTCACGAGCAAAGCCTGGTATACTAGAA
DNA 3: TTCTAGTATACCAGGCTTTGCTCGTGAATAGAAAAGTGTACAAACCCACATTGCCATCGGGCGAAATGGGGTGTGCAGCGCATGCTCG
DNA 4: CGAGCATGCGCTGCACACCCCATTTCGCCCGATGGCAATGTGGGTAGCTGCGTTGATCAAGGTCCTACGTCGATGTCTTAGGGAACTG
In the case of B5, the binding result in series [4] is on record as “binds”.

The values above are taken from publication PMC7663122, “Protein-Assisted Room-Temperature Assembly of Rigid, Immobile Holliday Junctions and Hierarchical DNA Nanostructures”.
